Measurements reported in paper PMC7815789, “Degradation of complex arabinoxylans by human colonic Bacteroidetes” (Nature Communications, 2021).

Target: BACINT_01039-CE1 (carbohydrate esterase family 1, acetyl-xylan esterase) (Bacteroides intestinalis DSM 17393) (UniProt B3C975)
Assay: crystal structure; seleno-methionine-labeled BACINT_01039-CE1, 20 mg/mL in 50 mM Tris, 150 mM NaCl pH 7.5; hanging drop; 10 mM ammonium sulfate, 80 mM sodium cacodylate pH 6.5, 21% PEG4000; two molecules in the asymmetric unit as a dimer

stoichiometry N: 2
Substance: BACINT_01039-CE1 (carbohydrate esterase family 1, acetyl-xylan esterase) (from UniProt B3C975 1-382) (enzyme)
